From paper doi:10.1101/869909

Target: HSP27 ACD domain (α-crystallin domain), monomeric (human)
Experiment: ITC

Sequence of HSP27 ACD domain (α-crystallin domain), monomeric (human) (P04792 76-184): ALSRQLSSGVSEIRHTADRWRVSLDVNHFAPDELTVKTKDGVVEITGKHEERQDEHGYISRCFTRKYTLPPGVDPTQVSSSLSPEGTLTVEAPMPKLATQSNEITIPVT

EITIPVTHE [HSP27 IXI peptide 178-…-186 (F185H), without biotin]
Kd: 14.3 µM
